Molecular target: the molecule itself
Assay: cross-linking

B1: His-GLUD1^K84R (enzyme)
chain: not shown
  stoichiometry N: 6
